Experimental data: patent publication US20070203054A1 (YISSUM RESEARCH DEVELOPMENT COMPANY OF THE HEBREW …, published 2007)

B1: CD99-Ig fusion protein (Fc fusion)
chain: DGGFDLSDALPDNENKKPTAIPKKPSAGDDFDLGDAVVDGENDDPRPPNPPKPMPNPNPNHPSSSGSFSDADLADGVSGGEGKGGSDGGGSHRKEGEEAD

Tests used:
[1] = target: HA of influenza A/Beijing (A/Beijing/262/95-like (H1N1)) on infected cells (influenza A virus A/Beijing/262/95-like (H1N1))
[2] = target: HA of influenza A/Moscow (A/Moscow/10/99-like (H3N2)) on infected cells (influenza A virus A/Moscow/10/99-like (H3N2))
[3] = target: HA of influenza A/Sydney (A/Sydney/5/97-like (H3N2)) on infected cells (influenza A virus A/Sydney/5/97-like (H3N2))
[4] = target: HA of influenza virus New Caledonia (H1N1) on infected cells (influenza A virus New Caledonia (H1N1))
[5] = target: HA of influenza virus Yamanashi (B strain) on infected cells (influenza B virus Yamanashi)
[6] = target: hemagglutinin-neuraminidase of Sendai virus (SV) on infected cells (Sendai virus)

Molecule | MFI [1] | MFI [2] | MFI [3] | MFI [4] | MFI [5] | MFI [6]
NKp30-Ig fusion protein (from UniProt O14931 19-135) (Fc fusion) | 4 | 8 | 8 | 10 | – | –
NKp44-Ig fusion protein (from UniProt O95944 22-190) (Fc fusion) | 128 | 24 | 120 | 518 | 117 | 350
NKp46-Ig fusion protein (from UniProt O76036 22-254) (Fc fusion) | 44 | 20 | 58 | 315 | – | –
NKp46D1-Ig fusion protein (membrane distal domain of NKp46 fused to Fc of human IgG1) (from UniProt O76036 22-120) (Fc fusion) | 7 | 8 | 10 | 5 | 8 | 8
NKp46D2-Ig fusion protein produced in COS cells (membrane proximal domain of NKp46 fused to Fc of human IgG1) (from UniProt O76036 121-254) (Fc fusion) | 77 | 50 | 100 | 420 | 51 | 95
B1 | 0 | 0 | 1 | 0 | 0 | 0.5
